Source: US11535824B2, “Nuclear transfer” (Sung Kwang Medical Foundation, priority 2015, dated 2022)

Tests used:
[1] = test system: cancer models; details: variety of in vitro and in vivo cancer models; cited from earlier work
[2] = test system: primary human fibroblasts; details: without MYC or KLF4; cited from earlier work
[3] = test system: H4R3; details: cited from earlier work
[4] = test system: SCNT-generated embryos; details: cited from earlier work
[5] = test system: mouse embryos obtained from SCNT; test: CPP-CARM1 protein treatment of 8-cell SCNT embryos; development to blastocyst; assay type: cell-based; details: for % of developed to BLs: calculated from 2 cell cleavaged embryos
Protocol: The above preliminary results were extended in further studies utilizing protein treatment. SCNT oocytes were cultured with protein of CARM1 on third day after formation of fertilized embryo to investigate the influence on the development rate into blastocyst. Specifically, mouse embryos obtained from SCNT were cultured to 8-cell stage in embryo culture medium (potassium simplex-optimized medium, KSOM; Millipore, Danvers, Mass.) containing 10% SPS (Sage, Trumbull, Conn.). And then, 8-cell embryos were cultured at 37° C. and 5% CO2 for 48 h in embryo culture medium with 2 μg/ml CPP-CARM1 recombinant protein or DsRed protein (control—non-functional protein) under mineral oil (Sage). Embryonic development was monitored for a further 2 days. CARM1 or DsRed cDNA was inserted into a pET vector to construct an expression plasmid for CARM1 conjugated to 7× arginine (a cell-penetrating peptide (CPP) domain) and a 6×His-tag. The CPP-CARM1 protein expression vector was transformed into BL21 (DE3) pLysS-competent cells (Stratagene Inc., La Jolla, Calif.). Transformed cells were cultured and induced by 1 mM isopropyl-1-thio-β-D-galactopyranoside (IPTG) for 8 h at 20° C. to produce the CPP-CARM1 or DsRed proteins.

[6] = test system: adult stem cells; details: cited from earlier work

CC(C)N(C[C@H]1O[C@@H](n2cnc3c(N)ncnc32)[C@H](O)[C@@H]1O)[C@H]1C[C@@H](CCc2nc3cc(C(C)(C)C)ccc3[nH]2)C1 [EPZ5676]
anticancer chemotherapeutic activity [1]: exhibit anticancer chemotherapeutic activity

Cc1cc(C)c(CNC(=O)c2cc(-c3ccc(CN4CCOCC4)cc3)cc3c2cnn3C2CCCC2)c(=O)[nH]1 [EPZ005687]
anticancer chemotherapeutic activity [1]: exhibit anticancer chemotherapeutic activity

CC[C@H](C)n1cc(C)c2c(C(=O)NCc3c(C)cc(C)[nH]c3=O)cc(-c3ccc(N4CCNCC4)nc3)cc21 [GSK126]
anticancer chemotherapeutic activity [1]: exhibit anticancer chemotherapeutic activity

CCCC(CCC)C(=O)O [Valproic acid]
reprogramming with two factors, OCT4 and SOX2 [2]: enables the reprogramming

Nc1ccc(S(=O)(=O)c2ccc(NCN3C(=O)NC(=O)C(=O)C3=O)cc2)cc1 [allantodapsone]
methylation at H4R3 [3]: hypomethylation

CC(/C=C/C(=O)NO)=C\[C@@H](C)C(=O)c1ccc(N(C)C)cc1 [trichostatin A]
chromosome decondensation and nuclear volume ([4]; SCNT-generated embryos): increase | cloning efficiency ([4]; additive in nuclear transfer): improve cloning efficiency

B1: coactivator-associated arginine methyltransferase 1 (protein, UniProt Q86X55 2-608, looked up)
Histone-arginine …: AAAAAAVGPGAGGAGSAVPGGAGPCATVSVFPGARLLTIGDANGEIQRHAEQQALRLEVRAGPDSAGIALYSHEDVCVFKCSVSRETECSRVGKQSFIITLGCNSVLIQFATPNDFCSFYNILKTCRGHTLERSVFSERTEESSAVQYFQFYGYLSQQQNMMQDYVRTGTYQRAILQNHTDFKDKIVLDVGCGSGILSFFAAQAGARKIYAVEASTMAQHAEVLVKSNNLTDRIVVIPGKVEEVSLPEQVDIIISEPMGYMLFNERMLESYLHAKKYLKPSGNMFPTIGDVHLAPFTDEQLYMEQFTKANFWYQPSFHGVDLSALRGAAVDEYFRQPVVDTFDIRILMAKSVKYTVNFLEAKEGDLHRIEIPFKFHMLHSGLVHGLAFWFDVAFIGSIMTVWLSTAPTEPLTHWYQVRCLFQSPLFAKAGDTLSGTCLLIANKRQSYDISIVAQVDQTGSKSSNLLDLKNPFFRYTGTTPSPPPGSHYTSPSENMWNTGSTYNLSSGMAVAGMPTAYDLSSVIASGSSVGHNNLIPLANTGIVNHTHSRMGSIMSTGIVQGSSGAQGSGGGSTSAHYAVNSQFTMGGPAISMASPMSIPTNTMHYGS
notes: member of the protein arginine methyltransferase (PRMT) family
No. of developed to BLs ([5]; Total of three experiments): 26 | % of developed to BLs ([5]; Total of three experiments): (38.2) % | % of developed to BLs ([5]; experiment 1): (46.2) % | No. of developed to BLs ([5]; experiment 1, treatment D 3, cumulus donor cell, KSOM): 12 | % of developed to BLs ([5]; experiment 2): (40) % | No. of developed to BLs ([5]; experiment 2, treatment D 3, cumulus donor cell, KSOM): 10 | % of developed to BLs ([5]; experiment 3): (23.5) % | No. of developed to BLs ([5]; experiment 3, treatment D 3, cumulus donor cell, KSOM): 4 | expression of Oct-4, Sox-2 and nanog [6]: upregulated
